Results taken from patent US20210395725A1.
One block for each binder: values may come before it.

Assays:
[1] = target: human placental laminin (human); assay: HEK293-6E cell display flow cytometry; 500 nM laminin-biotin + streptavidin-Alexa Fluor 647; secondary only 4.17
BSA (bovine) = BSA (bovine) (UniProt P02769); assay: ELISA; BSA as control antigen, neat eluted His-tagged protein, anti-pentaHis-HRP
[2] = target: human placental laminin (human); assay: HEK293-6E cell display flow cytometry; 500 nM laminin-biotin + streptavidin-Alexa Fluor 647; secondary only 4.11
[3] = target: human placental laminin (human); assay: bead flow cytometry; EVs on CD9+ capture beads, 5 µg/mL biotinylated laminin + neutravidin-PE; with competition of 3-fold molar excess of unlabelled laminin (15 µg/mL)
[4] = target: human placental laminin (human); assay: bead flow cytometry; EVs on CD9+ capture beads, 5 µg/mL biotinylated laminin + neutravidin-PE; without competition
[5] = target: human placental laminin (human); assay: HEK293-6E cell display flow cytometry; 500 nM laminin-biotin + streptavidin-Alexa Fluor 647; secondary only 5.57
[6] = target: human placental laminin (human); assay: HEK293-6E cell display flow cytometry; 500 nM laminin-biotin + streptavidin-Alexa Fluor 647; secondary only 3.28
[7] = target: human placental laminin (human); assay: HEK293-6E cell display flow cytometry; 500 nM laminin-biotin + streptavidin-Alexa Fluor 647; secondary only 6.09
[8] = target: human placental laminin (human); assay: HEK293-6E cell display flow cytometry; 500 nM laminin-biotin + streptavidin-Alexa Fluor 647; secondary only 1.77

Chain of BSA (bovine) (P02769 25-607 limits assumed): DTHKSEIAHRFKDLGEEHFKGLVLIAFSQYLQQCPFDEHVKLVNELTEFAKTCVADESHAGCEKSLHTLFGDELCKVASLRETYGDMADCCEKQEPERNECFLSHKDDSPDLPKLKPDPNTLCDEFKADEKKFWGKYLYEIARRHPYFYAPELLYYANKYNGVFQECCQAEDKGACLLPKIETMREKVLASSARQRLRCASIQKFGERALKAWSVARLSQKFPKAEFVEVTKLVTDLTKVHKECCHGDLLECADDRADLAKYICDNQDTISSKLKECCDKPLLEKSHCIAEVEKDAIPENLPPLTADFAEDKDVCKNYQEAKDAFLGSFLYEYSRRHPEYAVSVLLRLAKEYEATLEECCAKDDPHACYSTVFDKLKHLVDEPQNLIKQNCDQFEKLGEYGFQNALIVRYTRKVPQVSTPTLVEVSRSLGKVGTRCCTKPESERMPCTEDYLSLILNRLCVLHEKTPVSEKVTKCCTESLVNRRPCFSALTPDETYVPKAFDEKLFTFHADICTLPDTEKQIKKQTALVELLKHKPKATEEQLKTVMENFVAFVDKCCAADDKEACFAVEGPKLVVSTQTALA

B1: laminin-binding CD81 LEL mutant 81_L13 (designed binder)
chain: FVNKDQIAKDVKQFYDQCLSWACNRKYEPNAKACVKTFHETLDCCGSSTKANYTHCVLEMNLCPSGSNIISNLFKEDCHQKIDDLFSGK
% antigen-positive cells [1]: 30.8%

B3: laminin-binding CD81 LEL mutant 81_L17 (designed binder)
chain: FVNKDQIAKDVKQFYDQCLRHACSGLSGRNAKACVKTFHETLDCCGSSTIKHKTLCVLIKNLCPSGSNIISNLFKEDCHQKIDDLFSGK
% antigen-positive cells [2]: 28.1%

B5: laminin-binding CD81 LEL mutant L2A_LU1_1 (designed binder)
chain: FVNKDQIAKDVKQFYDQALMICCHRHYANNACAVVKTFHETLDCCGSSTPSSTTPCVLQNNLCPSGSNIISNLFKEDCHQKIDDLFSGK
% antigen-positive cells [5]: 37.9%

B6: laminin-binding CD81 LEL mutant 81_L21 (designed binder)
chain: FVNKDQIAKDVKQFYDQALFICCFRRYANNACAVVKTFHETLDCCGSSTRNNETACVLAKNLCPSGSNIISNLFKEDCHQKIDDLFSGK
% antigen-positive cells [6]: 37.1%

B8: laminin-binding CD81 LEL mutant L2B_LU1 (designed binder)
chain: FVNKDQIAKDVKQFYDQALVFCCFGGHANNACAVVKTFHETLDCCGSSTHPYKTKCVLQRNLCPSGSNIISNLFKEDCHQKIDDLFSGK
% antigen-positive cells [7]: 54.2%

B9: laminin-binding CD81 LEL mutant L2B_LU1_1 (designed binder)
chain: FVNKDQIAKDVKQFYDQALWKCCNLSQANNACAVVKTFHETLDCCGSSTYLCATYCVLWPNLCPSGSNIISNLFKEDCHQKIDDLFSGK
% antigen-positive cells [8]: 20.1%

B10: laminin-binding CD81 LEL mutant L2A_LU1 (designed binder)
chain: FVNKDQIAKDVKQFYDQALRECCNTFDANNACAVVKTFHETLDCCGSSTTHSSTGCVLFFNLCPSGSNIISNLFKEDCHQKIDDLFSGK
A450/620 (average) (BSA (bovine)): 0.045

Continued, values first:

A450/620 (average) (BSA (bovine)): 0.016
B2: laminin-binding CD81 LEL mutant L3A_LU1 (designed binder)
chain: FVNKDQIAKDVKQFYDQCLLWACSKRYKYNAKACVKTFHETLDCCGSSTMGNLTECVLIENLCPSGSNIISNLFKEDCHQKIDDLFSGK

Mean 561 [3]: 23900 | Mean 561 - BG [3]: 18700 | ratio 488/561 [3]: 0.248 | Mean 561 [4]: 20200 | Mean 561 - BG [4]: 14800 | ratio 488/561 [4]: 0.21
B4: wild-type CD81-eGFP on recombinant EVs (protein, not shown: large carriers)
chain: MGVEGCTKCIKYLLFVFNFVFWLAGGVILGVALWLRHDPQTTNLLYLELGDKAPNTFYVGIYILIAVGAVMMFVGFLGCYGAIQESQCLLGTFFTCLVILFACEVAAGIWGFVNKDQIAKDVKQFYDQALQQAVVDDDANNAKAVVKTFHETLDCCGSSTLTALTTSVLKNNLCPSGSNIISNLFKEDCHQKIDDLFSGKLYLIGIAAIVVAVIMIFEMILSMVLCCGIRNSSVY

A450/620 (average) (BSA (bovine)): 0.021
B7: laminin-binding CD81 LEL mutant L3B_LU1_2 (designed binder)
chain: FVNKDQIAKDVKQFYDQCLKYACKQGDWENAKACVKTFHETLDCCGSSTVANMTRCVLPANLCPSGSNIISNLFKEDCHQKIDDLFSGK
